A value given as a limit tells only on which side of the number the result lay.

Experiment [1] has as its target T1, human CHL-1 (residues 25-1096 with a C-terminal 10xHis tag) (human, UniProt O00533 25-1096).
T1 construct: range 25-1096; also called L1CAM-2; L1CAM2
T1 sequence: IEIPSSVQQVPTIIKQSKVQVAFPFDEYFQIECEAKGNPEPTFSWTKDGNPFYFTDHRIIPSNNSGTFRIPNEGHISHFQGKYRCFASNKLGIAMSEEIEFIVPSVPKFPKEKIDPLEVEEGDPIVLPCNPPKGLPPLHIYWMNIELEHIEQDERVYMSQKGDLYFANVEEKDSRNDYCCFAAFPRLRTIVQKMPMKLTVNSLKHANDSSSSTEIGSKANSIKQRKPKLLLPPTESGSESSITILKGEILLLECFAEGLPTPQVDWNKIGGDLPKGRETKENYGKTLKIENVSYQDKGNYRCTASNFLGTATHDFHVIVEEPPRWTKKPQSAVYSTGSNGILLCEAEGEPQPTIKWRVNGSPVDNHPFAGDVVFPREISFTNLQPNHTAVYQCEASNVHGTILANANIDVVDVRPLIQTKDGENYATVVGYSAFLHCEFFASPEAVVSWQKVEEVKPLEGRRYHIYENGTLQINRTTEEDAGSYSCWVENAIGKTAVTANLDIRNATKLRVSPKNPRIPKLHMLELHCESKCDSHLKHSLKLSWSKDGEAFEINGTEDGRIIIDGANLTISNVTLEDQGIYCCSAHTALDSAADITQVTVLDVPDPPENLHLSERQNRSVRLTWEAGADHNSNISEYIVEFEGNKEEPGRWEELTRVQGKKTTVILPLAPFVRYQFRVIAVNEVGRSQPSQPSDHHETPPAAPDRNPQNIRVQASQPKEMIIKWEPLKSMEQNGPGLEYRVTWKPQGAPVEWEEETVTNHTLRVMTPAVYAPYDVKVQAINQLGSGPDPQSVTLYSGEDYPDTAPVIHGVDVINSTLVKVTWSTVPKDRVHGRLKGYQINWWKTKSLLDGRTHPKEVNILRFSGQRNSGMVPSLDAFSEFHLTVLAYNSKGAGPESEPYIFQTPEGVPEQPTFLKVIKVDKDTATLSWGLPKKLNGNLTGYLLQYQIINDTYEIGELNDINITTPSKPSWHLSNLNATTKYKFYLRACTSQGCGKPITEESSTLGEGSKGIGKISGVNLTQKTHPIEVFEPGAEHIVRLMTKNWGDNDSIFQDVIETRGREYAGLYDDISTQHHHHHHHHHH
The experiment is described as follows: ELISA, plates coated with human CHL-1. The text has this: Selectivity. […] These proteins are other members of the L1 family of cell adhesion proteins and have between 49% and 55% sequence similarity with L1CAM in the extracellular portion. […] Positive control antibodies were included for each homolog. […] Epitope. The extracellular portion of L1CAM contains six immunoglobulin-like (Ig) domains and five fibronectin type III (FN) domains. To narrow down the binding region of the development candidate mAbs, truncated versions of human L1CAM protein (Ig domain, residues 21-605; FN domain, residues 606-1116; each with a C-terminal 6×His tag) were recombinantly produced, followed by a BLI experiment to test binding at 50 and 100 nM. […] 6×His tag is set forth in SEQ ID NO: 316.

The target in experiment [2] is T2, human L1CAM on cells (human, UniProt P32004 20-1257).
T2 construct: Overexpressed on stably transfected HEK293T cells or endogenous on MCF-7 and MDA-MB-231 cells; also called HEK293T-hL1CAM
T2 sequence (P32004 20-1257): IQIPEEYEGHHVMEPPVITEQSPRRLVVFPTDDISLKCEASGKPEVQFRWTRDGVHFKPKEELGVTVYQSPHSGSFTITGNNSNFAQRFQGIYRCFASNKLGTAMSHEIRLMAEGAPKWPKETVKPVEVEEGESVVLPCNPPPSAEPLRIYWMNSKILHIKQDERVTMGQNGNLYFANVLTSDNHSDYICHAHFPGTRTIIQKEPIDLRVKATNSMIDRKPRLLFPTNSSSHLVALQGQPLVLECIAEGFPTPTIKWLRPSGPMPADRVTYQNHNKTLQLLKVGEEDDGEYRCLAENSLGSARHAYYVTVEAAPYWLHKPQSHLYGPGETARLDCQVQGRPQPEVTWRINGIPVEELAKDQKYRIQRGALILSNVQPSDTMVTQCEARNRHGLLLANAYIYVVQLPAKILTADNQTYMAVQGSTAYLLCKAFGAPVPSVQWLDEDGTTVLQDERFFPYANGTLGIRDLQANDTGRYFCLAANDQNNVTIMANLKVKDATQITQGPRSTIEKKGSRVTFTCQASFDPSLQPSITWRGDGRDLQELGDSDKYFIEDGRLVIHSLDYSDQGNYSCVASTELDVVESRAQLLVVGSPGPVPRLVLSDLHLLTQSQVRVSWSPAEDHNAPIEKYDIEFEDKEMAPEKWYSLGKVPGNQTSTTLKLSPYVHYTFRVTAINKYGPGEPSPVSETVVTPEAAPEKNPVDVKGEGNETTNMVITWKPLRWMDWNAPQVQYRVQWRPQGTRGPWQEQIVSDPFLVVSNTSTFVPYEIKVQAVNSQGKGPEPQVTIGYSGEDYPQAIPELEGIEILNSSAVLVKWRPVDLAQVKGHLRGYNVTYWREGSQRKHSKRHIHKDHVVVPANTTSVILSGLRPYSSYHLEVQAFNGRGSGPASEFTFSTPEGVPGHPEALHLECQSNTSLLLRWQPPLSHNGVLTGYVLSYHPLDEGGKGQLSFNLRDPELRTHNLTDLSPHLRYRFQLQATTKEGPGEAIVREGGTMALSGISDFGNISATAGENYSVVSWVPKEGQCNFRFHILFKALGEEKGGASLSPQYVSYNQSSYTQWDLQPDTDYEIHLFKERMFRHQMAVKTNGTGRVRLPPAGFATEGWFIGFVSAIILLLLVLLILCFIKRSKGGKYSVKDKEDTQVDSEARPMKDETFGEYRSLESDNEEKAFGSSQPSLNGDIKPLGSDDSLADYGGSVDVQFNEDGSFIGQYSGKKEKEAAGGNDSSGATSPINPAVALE
The experiment can be described thus: summary table; binding to cells with endogenous L1CAM (MDA-MB-231). Here is the method:
(§1) Binding to L1CAM on Cells. […] Cells were then incubated with an AlexaFluor 647 goat anti-human Fc secondary antibody. After washing, the stained cells were analyzed by flow cytometry.
(§2) The binding curves for each antibody and cell line normalized to secondary antibody only staining (MFI ratio) are shown in FIGS. 14A-14C. EC50 values were determined by non-linear regression (Table 70). […] It is possible that differences in the conformation and oligomerization of L1CAM, depending on the surface expression level, contributed to the binding pattern. […] An avidity effect due to high levels of L1CAM surface expression may have contributed to the strong binding observed in this experiment.

In experiment [3] the target is T2, human L1CAM on cells. The experiment can be described thus: summary table; binding to cells with endogenous L1CAM (MCF-7). Here is the method: as §1, §2
In experiment [4] the target is T2, human L1CAM on cells. The experiment can be described thus: summary table; binding to cells overexpressing human L1CAM (HEK293T). On the procedure: as §1, §2
The target of experiment [5] is T3, soluble mouse L1CAM (monomer), His-tagged (mouse, UniProt P11627 20-1123, limits assumed).
T3 construct: read as mouse
T3 sequence (P11627 20-1123 limits assumed): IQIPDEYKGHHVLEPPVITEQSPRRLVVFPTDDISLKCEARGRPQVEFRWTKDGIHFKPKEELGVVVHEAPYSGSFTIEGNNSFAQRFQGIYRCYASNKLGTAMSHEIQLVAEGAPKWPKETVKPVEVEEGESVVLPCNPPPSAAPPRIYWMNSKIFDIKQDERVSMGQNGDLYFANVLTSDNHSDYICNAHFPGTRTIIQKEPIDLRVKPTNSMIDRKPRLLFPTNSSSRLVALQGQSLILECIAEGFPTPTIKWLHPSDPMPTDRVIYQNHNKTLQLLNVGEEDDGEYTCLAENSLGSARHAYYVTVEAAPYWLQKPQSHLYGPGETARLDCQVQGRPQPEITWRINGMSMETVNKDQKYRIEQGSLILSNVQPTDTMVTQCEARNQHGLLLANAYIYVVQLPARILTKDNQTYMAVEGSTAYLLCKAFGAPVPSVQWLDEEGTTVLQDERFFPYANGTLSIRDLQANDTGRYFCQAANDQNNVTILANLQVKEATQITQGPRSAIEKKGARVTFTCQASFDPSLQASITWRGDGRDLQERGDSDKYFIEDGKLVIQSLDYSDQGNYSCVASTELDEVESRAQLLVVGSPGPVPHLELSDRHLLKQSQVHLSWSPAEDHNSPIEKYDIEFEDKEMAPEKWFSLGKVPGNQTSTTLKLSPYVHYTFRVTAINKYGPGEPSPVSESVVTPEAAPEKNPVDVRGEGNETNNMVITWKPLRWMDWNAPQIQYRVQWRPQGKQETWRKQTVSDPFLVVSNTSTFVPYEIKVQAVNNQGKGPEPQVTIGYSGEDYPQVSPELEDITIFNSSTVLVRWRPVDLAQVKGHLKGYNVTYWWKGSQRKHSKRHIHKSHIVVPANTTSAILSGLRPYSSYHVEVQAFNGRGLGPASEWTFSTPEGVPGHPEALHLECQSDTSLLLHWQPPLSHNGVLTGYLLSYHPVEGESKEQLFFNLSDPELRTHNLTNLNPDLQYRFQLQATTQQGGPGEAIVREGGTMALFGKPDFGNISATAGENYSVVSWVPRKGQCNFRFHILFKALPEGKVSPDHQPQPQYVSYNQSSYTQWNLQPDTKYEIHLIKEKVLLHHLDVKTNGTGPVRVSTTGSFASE
The experiment can be described thus: BLI, mouse against human L1CAM-His. On the procedure:
(§3) Cross-reactivity to Mouse L1CAM. Affinity to mouse L1CAM was measured by BLI using an Octet Red96e instrument. […] The data was prepared by reference well subtraction, and response curves were globally fit to a 1:1 Langmuir binding model.

Experiment [6] concerns the target T4, soluble cynomolgus monkey L1CAM, His-tagged, monomeric (cynomolgus monkey, UniProt A0A2K5URB5 20-1120).
T4 construct: also called cyL1CAM protein; cynomolgus L1CAM-His
The experiment can be described thus: summary table; soluble cynomolgus monkey L1CAM (monomer). Here is the method: Cross-reactivity to Cynomolgus Monkey L1CAM. Affinity to cynomolgus L1CAM was measured by BLI using an Octet Red96e instrument. […] The data was prepared by reference well subtraction, and response curves were globally fit to a 1:1 Langmuir binding model.

The target in experiment [7] is T2, human L1CAM on cells. The experiment is described as follows: flow cytometry, MCF-7 cells, AlexaFluor 647 anti-human Fc secondary. Here is the method:
as §1, §2

Experiment [8] deals with T5, mouse L1CAM on transiently transfected HEK293FT cells (mouse, UniProt P11627 20-1260).
T5 construct: whole, on cells; also called mouse L1CAM on cells
T5 sequence (P11627 20-1260): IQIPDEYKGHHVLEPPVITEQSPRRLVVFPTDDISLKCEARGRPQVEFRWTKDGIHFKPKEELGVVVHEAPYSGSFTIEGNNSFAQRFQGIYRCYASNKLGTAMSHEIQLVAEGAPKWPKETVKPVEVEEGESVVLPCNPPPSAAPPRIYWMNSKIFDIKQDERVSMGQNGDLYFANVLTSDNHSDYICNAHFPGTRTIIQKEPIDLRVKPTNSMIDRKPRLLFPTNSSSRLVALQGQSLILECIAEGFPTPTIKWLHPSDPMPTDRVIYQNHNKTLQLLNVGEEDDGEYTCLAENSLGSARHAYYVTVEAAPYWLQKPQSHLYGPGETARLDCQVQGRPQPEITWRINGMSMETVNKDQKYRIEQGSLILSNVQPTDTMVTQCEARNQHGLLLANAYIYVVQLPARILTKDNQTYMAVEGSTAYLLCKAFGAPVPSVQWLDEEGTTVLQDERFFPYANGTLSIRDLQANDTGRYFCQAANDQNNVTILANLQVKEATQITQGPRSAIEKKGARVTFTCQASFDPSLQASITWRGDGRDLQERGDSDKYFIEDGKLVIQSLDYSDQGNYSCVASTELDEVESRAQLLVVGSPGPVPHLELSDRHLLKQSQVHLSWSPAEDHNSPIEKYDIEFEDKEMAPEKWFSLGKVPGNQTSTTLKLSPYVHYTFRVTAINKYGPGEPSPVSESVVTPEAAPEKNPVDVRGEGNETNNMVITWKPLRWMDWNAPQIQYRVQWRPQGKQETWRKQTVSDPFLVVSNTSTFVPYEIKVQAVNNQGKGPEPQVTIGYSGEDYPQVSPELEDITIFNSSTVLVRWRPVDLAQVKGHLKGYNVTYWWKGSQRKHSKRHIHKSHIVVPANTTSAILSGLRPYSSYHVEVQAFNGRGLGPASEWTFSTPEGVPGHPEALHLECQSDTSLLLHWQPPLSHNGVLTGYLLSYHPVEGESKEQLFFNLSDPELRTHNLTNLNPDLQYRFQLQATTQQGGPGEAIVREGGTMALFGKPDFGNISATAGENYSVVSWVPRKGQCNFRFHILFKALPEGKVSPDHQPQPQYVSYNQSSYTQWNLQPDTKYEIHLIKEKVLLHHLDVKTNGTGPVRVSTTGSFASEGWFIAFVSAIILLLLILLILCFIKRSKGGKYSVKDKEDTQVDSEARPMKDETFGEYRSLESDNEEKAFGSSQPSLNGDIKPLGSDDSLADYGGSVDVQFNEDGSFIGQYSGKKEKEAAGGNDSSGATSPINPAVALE
The experiment is described as follows: flow cytometry, HEK293FT cells transiently transfected with mouse L1CAM (data not shown).

Experiment [9] has as its target T2, human L1CAM on cells. The experiment is described as follows: flow cytometry, MDA-MB-231 cells, AlexaFluor 647 anti-human Fc secondary. On the procedure: as §1, §2
In experiment [10] the target is T2, human L1CAM on cells. The experiment can be described thus: flow cytometry, HEK293T-hL1CAM cells, AlexaFluor 647 anti-human Fc secondary. On the procedure:
as §1, §2

The target in experiment [11] is T3, soluble mouse L1CAM (monomer), …. The experiment can be described thus: summary table; soluble mouse protein (row printed as 'mouse CD40 (monomer)', read as mouse L1CAM). Here is the method:
as §3

B1: TDI-Y-005 (antibody, human IgG1, kappa, V domains shown)
VH: EVQMVESGGGLVQPGGSLRLSCAAPGFIFSSYNMNWVRQAPGKGLEWVSYISSSSSTTYYADSVKGRFTISRDNAKNSLYLQMNSLRDEDTAVYYCASLYSGYDYYYYYGMDVWGQGTTVTVSS
VL: DIVMTQTPLSSPVSLGQPASISCRSSQSLVHSDGNTYLSWLQQRPGQPPRVLIYKISKRFSGVPDRFSGSGAGTDFTLKISRVEAEDVGVYYCMQATQFPFTFGPGTKVDIKR
notes: Human IgG1, kappa; also called human 14A10 mAb; fully human 14A10 mAb
Consider B1, for which, in [1], the binding result was “no binding (tested: 1 µM)”. Moreover, the EC50 with human L1CAM on cells [2] was determined as 7.1 nM; with human L1CAM on cells [3], 2.5 nM; with human L1CAM on cells [4], 2 nM; with human L1CAM on cells [7], 2.5 nM; in [8], 0.9 nM; with human L1CAM on cells [9] it was 7.1 nM. In the experiment with human L1CAM on cells [10], this molecule displayed an EC50 of 2 nM. Besides, the “fold difference of KD against human L1CAM” value in [5] is no more than 8 fold. For the same molecule, the Kd in experiment [6] amounted to 1.3 nM; in experiment [11], 34 nM. Moreover, the values for the koff in experiment [6] and in [11] were 0.00012 s⁻¹ and 0.0011 s⁻¹, respectively. Also, the kon was 93000 M⁻¹ s⁻¹ in experiment [6] and 31000 M⁻¹ s⁻¹ in [11].

Source of the values: patent US20250340636A1 (Memorial Sloan Kettering, published 2025).
